Experiment [1] deals with T1, human ERBB3 on transiently transfected HEK-293 cells (human, UniProt P21860 20-1342).
T1 construct: also called human ERBB3+ HEK-293 cells
In words: flow cytometry, human ERBB3-transfected HEK-293. Here is the method:
(§1) Purified IgGs were tested in FACs for binding to human and rhesus monkey ERBB3 expressed on transiently transfected HEK-293 cells and HEK-293 wild-type cells. The IgG samples were titrated in three-fold serial dilutions starting at 500 nM to 0.008 nM. Binding of IgGs was detected with a mouse anti-human IgG conjugated to FITC. Results were analyzed by examining the Mean Fluorescence Intensity (MFI) of 10000 cells per sample in the BL-1 channel detector of a flow cytometer (Attune™ NxT Acoustic Focusing Cytometer, Invitrogen/ThermoFisher Scientific).
(§2) Antibodies to ERBB3 were analysed for concentration-dependent binding at the cell surface via flow cytometry. HEK-293 cells were transiently transfected with either human or rhesus ERBB3 full-length cDNAs. Anti-ERBB3 IgGs and an isotype control were then all tested in IgG1null format, over a concentration range of 500-0.008 nM for binding to human (FIG. 5A) and rhesus (FIG. 5B) transfected cells.

In experiment [2] the target is T2, rhesus ERBB3 on transiently transfected HEK-293 cells (rhesus monkey (Macaca mulatta), UniProt P21860 20-1342 (human entry)).
T2 construct: also called rhesus ERBB3+ HEK-293 cells
T2 chain: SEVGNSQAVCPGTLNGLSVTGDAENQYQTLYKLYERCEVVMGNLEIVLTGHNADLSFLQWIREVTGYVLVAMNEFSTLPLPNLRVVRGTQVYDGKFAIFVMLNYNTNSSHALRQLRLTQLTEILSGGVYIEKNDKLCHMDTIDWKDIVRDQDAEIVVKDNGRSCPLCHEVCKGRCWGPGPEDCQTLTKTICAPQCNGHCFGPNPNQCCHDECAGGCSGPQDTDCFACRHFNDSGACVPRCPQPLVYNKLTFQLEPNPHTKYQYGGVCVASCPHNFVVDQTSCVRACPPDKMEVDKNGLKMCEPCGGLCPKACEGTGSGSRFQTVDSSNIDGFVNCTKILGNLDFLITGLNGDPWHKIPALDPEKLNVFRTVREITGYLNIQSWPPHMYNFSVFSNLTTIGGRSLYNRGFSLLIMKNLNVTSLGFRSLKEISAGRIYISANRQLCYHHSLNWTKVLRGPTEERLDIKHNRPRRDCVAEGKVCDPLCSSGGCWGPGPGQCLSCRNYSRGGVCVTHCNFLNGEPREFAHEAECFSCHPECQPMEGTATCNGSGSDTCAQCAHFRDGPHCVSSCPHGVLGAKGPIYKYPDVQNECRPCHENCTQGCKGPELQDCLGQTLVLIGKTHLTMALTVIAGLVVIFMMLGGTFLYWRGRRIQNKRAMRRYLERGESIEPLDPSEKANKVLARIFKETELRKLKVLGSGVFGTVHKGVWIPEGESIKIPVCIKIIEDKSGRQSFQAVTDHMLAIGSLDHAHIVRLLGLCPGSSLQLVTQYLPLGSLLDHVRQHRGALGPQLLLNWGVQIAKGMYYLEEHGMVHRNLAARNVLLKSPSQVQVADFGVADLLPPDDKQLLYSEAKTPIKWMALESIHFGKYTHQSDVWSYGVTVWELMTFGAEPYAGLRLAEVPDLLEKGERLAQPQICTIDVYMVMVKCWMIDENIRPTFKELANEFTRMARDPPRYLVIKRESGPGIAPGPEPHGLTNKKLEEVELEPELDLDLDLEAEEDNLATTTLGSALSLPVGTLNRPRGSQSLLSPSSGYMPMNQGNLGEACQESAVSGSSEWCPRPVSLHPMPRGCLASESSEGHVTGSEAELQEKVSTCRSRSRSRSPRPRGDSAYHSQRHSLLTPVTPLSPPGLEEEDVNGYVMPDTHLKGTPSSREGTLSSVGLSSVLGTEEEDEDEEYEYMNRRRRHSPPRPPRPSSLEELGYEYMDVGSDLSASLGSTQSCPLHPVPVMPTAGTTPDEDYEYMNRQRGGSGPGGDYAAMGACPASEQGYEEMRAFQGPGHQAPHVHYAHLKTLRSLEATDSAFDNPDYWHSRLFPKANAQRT
In words: flow cytometry, rhesus ERBB3-transfected HEK-293. As for the experimental part: as §1, §2

Experiment [3] has as its target T3, human ERBB3 His tagged, monomeric (human, UniProt P21860 20-643, biotinylated in the Alphascreen assays (sites not given)).
T3 construct: Used unbiotinylated as Biacore analyte and biotinylated in Alphascreen; treated as one molecule; also called human ERBB3-His (Acrobiosystems); biotinylated monomeric human ERBB3
In words: SPR (Biacore), captured IgG, monomeric ERBB3-His analyte. As for the experimental part:
(§3) Affinity (KD) of purified IgGs was determined via SPR with antigen in-solution on a Biacore® 3000 (GE). A mouse anti-human antibody (CH1 specific) was immobilized on a CM5 Sensor Chip to a level of 2000 RU in acetate buffer at pH 4.5 using amine coupling following the Wizard instructions for two channels. One channel was used for background signal correction. The standard running buffer HBS-EP pH 7.4 was used. Regeneration was performed with a single injection of 10 μl of 10 mM Glycine at pH 1.5 at […]. IgG samples were injected for 2 minutes at 50 nM at 30 μl/min followed by an off-rate of 60 seconds. The monomeric antigen (human ERBB3 His tagged or rhesus monkey ERBB3 His tag) was injected in two fold serial dilutions from 3 nM down to 0.2 nM, for 2 minutes at 30 μl/min followed by an off-rate of 300 seconds. The obtained sensorgrams were analysed using the Biacore® 3000 evaluation (BlAevaluation) software. The KD was calculated by simultaneous fitting of the association and dissociation phases to a 1:1 Langmuir binding model.
(§4) Biacore® analyses of binding affinity were performed for all IgGs to solution-phase, monomeric human and rhesus ERBB3 proteins.
(In SPR one partner is held on a chip, and binding of the other changes the refractive index at the surface.)

The target in experiment [4] is T4, rhesus monkey ERBB3 His tag, monomeric (rhesus monkey (Macaca mulatta), UniProt P21860 20-643 (human entry), limits assumed).
T4 chain: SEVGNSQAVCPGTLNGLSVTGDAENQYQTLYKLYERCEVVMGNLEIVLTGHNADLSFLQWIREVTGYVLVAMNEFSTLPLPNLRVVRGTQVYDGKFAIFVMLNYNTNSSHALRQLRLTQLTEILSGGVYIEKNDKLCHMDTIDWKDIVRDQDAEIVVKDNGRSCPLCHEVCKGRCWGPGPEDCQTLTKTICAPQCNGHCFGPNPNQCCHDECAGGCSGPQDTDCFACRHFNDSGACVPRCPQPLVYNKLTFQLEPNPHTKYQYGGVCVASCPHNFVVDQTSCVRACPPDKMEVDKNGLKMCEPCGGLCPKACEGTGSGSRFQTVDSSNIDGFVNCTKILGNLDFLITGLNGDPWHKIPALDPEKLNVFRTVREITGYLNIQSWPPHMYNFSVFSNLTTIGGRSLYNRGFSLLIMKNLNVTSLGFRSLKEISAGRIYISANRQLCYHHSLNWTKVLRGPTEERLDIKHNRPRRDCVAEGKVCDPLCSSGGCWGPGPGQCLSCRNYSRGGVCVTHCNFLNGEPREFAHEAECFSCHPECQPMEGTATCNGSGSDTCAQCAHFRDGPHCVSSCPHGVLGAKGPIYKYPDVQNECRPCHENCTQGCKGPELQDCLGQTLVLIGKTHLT
The description is as above. As for the experimental part:
as §3, §4

B1: 15G11 IgG1null (antibody, V domains shown)
VH: QVQLVESGGGLVKPGGSLRLSCAASGFTFSDYGMSWIRQAPGKGLEWVSTISDSGSYTYYPDSVKGRFTISRDNAKNSLYLQMNSLRAEDTAVYYCARELGDYDGFDYWGQGTLVTVSS
VL: DIQMTQSPSSLSASVGDRVTITCRASQEISSYLSWYQQKPGKAPKLLIYAASSLDSGVPSRFSGSGSGTDFTLTISSLQPEDFATYYCLQYDSTPYTFGGGTKVEIK
notes: Human IgG1null (L234A, L235A, G237A) and human Ckappa
Consider B1, for which the “maximum MFI, fold over isotype control background” value (from here on “maximum MFI, fold”) in experiment [1] was greater than 20 fold. The “maximum MFI, fold” value in experiment [2] is greater than 20 fold. Further, in experiment [3], the dissociation constant (Kd) (as a rule, the equilibrium constant for the complex coming apart) came out at 0.078 nM; the koff (usually the rate constant with which the complex falls apart) was found to be 0.0012 s⁻¹; the kon (as a rule, the second-order rate constant of association) worked out at 1.6e+07 M⁻¹ s⁻¹. In addition, in experiment [4], the Kd was found to be 0.33 nM, the koff worked out at 0.0011 s⁻¹ and the kon was found to be 3.3e+06 M⁻¹ s⁻¹.

B2: 15E02 IgG1null (antibody, V domains shown)
VH: QVQLVESGGGLVKPGGSLRLSCAASGFTFSDYGMSWIRQAPGKGLEWVSTISDSGTTIYYADNVKGRFTISRDNAKNSLYLQMNSLRAEDTAVYYCAREYGDYDGFDYWGQGTLVTVSS
VL: DIQMTQSPSSLSASVGDRVTITCRASQSISSYLSWYQQKPGKAPKLLIYAASSLQSGVPSRFSGSGSGTDFTLTISSLQPEDFATYYCLQYDSTPLTFGGGTKVEIK
notes: Human IgG1null and human Ckappa
Take B2: in experiment [1], the “maximum MFI, fold” value was greater than 20 fold. Moreover, the “maximum MFI, fold” value in experiment [2] is greater than 20 fold. In addition, in experiment [3], binding was put at a Kd of 0.61 nM, the dissociation rate constant (koff) is 0.0039 s⁻¹ and the association rate constant (kon) was 6.3e+06 M⁻¹ s⁻¹. In experiment [4], this molecule returned a Kd of 2.5 nM, an off-rate constant (koff) of 0.0095 s⁻¹ and a kon of 3.7e+06 M⁻¹ s⁻¹.

B3: 15D10 IgG1null (antibody, V domains shown)
VH: QVQLVESGGGLVKPGGSLRLSCAASGFTFSDYGMSWIRQAPGKGLEWVSTISDGGSYTYYADNVKGRFTISRDNAKNSLYLQMNSLRAEDTAVYYCAREWGDYDGFDFWGQGTLVTVSS
VL: DIQMTQSPSSLSASVGDRVTITCRASQSISSYLSWYQQKPGKAPKLLIYAASTLQSGVPSRFSGSGSGTDFTLTISSLQPEDFATYYCLQYDSTPLTFGGGTKVEIK
notes: as for B1
Regarding B3, the “maximum MFI, fold” value in experiment [1] is greater than 20 fold. For the same molecule, in experiment [2], the “maximum MFI, fold” value is greater than 20 fold. In addition, in experiment [3], the Kd is 0.14 nM, the koff was determined as 0.0019 s⁻¹ and the kon came to 1.4e+07 M⁻¹ s⁻¹. In experiment [4], binding was put at a Kd of 0.54 nM, the koff came to 0.0018 s⁻¹ and the kon amounted to 3.3e+06 M⁻¹ s⁻¹.

B4: 09H02 IgG1null (antibody, V domains shown)
VH: QVQLVESGGGLVKPGGSLRLSCAASGFTFSDYSMSWIRQAPGKGLEWVSTISDGGSYTYYPDSVKGRFTISRDNAKNSLYLQMNSLRAEDTAVYYCARELGDYDGFDYWGQGTLVTVSS
VL: DIQMTQSPSSLSASVGDRVTITCRASQSISSYLSWYQQKPGKAPKLLIYAASSLQSGVPSRFSGSGSGTDFTLTISSLQPEDFATYYCLQYDSTPLTFGGGTKVEIK
notes: Human IgG1null and human Ckappa; also called 09HO2
In the case of B4, the “maximum MFI, fold” value in experiment [1] was greater than 20 fold. In experiment [2], the “maximum MFI, fold” value was greater than 20 fold. Also, in experiment [3], binding was put at a Kd of 0.43 nM, the koff is 0.0013 s⁻¹ and the kon was 3.1e+06 M⁻¹ s⁻¹. In experiment [4], this molecule gave a Kd of 0.25 nM, a koff of 0.0027 s⁻¹ and a kon of 1.1e+07 M⁻¹ s⁻¹.

B5: 15D03 IgG1null (antibody, V domains shown)
VH: QVQLVESGGGLVKPGGSLRLSCAASGFTFSDYGMSWIRQAPGKGLEWVSTISDSGSYIYYADSVKGRFTISRDNAKNSLYLQMNSLRAEDTAVYYCAREWGDYDGFDHWGQGTLVTVSS
VL: DIQMTQSPSSLSASVGDRVTITCRASQEISSYLSWYQQKPGKAPKLLIYAASSLQSGVPSRFSGSGSGTDFTLTISSLQPEDFATYYCLQYDSTPLTFGGGTKVEIK
notes: as for B2
For the molecule B5, the “maximum MFI, fold” value in experiment [1] and in experiment [2] was greater than 20 fold throughout. For the same molecule, the Kd in experiment [3] and in experiment [4] was 0.26 nM in each case. The koff in experiment [3] came to 0.003 s⁻¹; in experiment [4], 0.0047 s⁻¹. The kon amounted to 1.1e+07 M⁻¹ s⁻¹ in experiment [3] and 1.8e+07 M⁻¹ s⁻¹ in experiment [4].

B6: 11H02 IgG1null (antibody, V domains shown)
VH: QVQLVESGGGLVKPGGSLRLSCAASGFTFSDYGMSWIRQAPGKGLEWVSTISDSGSYTYYADSVKGRFTISRDNAKNSLYLQMNSLRAEDTAVYYCAREWGDYDGFDNWGQGTLVTVSS
VL: DIQMTQSPSSLSASVGDRVTITCRASQIISSYLSWYQQKPGKAPKLLIYAASSLDSGVPSRFSGSGSGTDFTLTISSLQPEDFATYYCLQYYSTPLTFGGGTKVEIK
notes: as for B2
Take B6: the “maximum MFI, fold” value in experiment [1] and in experiment [2] was greater than 20 fold in each case. Further, the values for the Kd in experiment [3] and in experiment [4] were 1.3 nM and 2.1 nM, respectively. The koff was found to be 0.0081 s⁻¹ in experiment [3] and 0.037 s⁻¹ in experiment [4]. Besides, the on-rate (kon) in experiment [3] worked out at 6.1e+06 M⁻¹ s⁻¹; in experiment [4], 1.7e+07 M⁻¹ s⁻¹.

The values above are taken from patent US20200339702A1 (ULTRAHUMAN THIRTEEN, published 2020).
